Columns and labels:
[1] = target: His598 (UniProt position 598, TSCGCHEAIMA); experiment: kinetics; conditions: 20 mM PBS; Ni-reconstituted protein (Nid site occupied, labile Nip removed with phenanthroline), turning over superoxide
[2] = target: His598 (UniProt position 598, TYCGCHEAIMA); experiment: kinetics; conditions: 20 mM PBS; Ni-reconstituted protein (Nid site occupied, labile Nip removed with phenanthroline), turning over superoxide

Row | Substance | pKa [1] | pKa [2]
1 | Acetyl-coenzyme A synthase, truncated C-terminal fragment ACS-alpha15, EFG-F598H variant (Moorella thermoacetica; F598H;S594_C595insEFG) | 6.09 | 
2 | Acetyl-coenzyme A synthase, truncated C-terminal fragment ACS-alpha15, YGP-F598H variant (Moorella thermoacetica; S594Y;Y594_C595insGP;F598H) |  | 5.87

From publication PMC8910529
